experiment: yeast display, Sf9 membrane polyspecificity reagent, FACS + sequencing; frameworks hold sequencing errors
Method in brief: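 Galactose induction of a Saccharomyces cerevisiae BJ5465 synthetic nanobody display library ran 36–48 hours. The cells were then stained for 1 hour at 4 °C with 10% biotinylated, detergent-solubilized Sf9 membrane reagent, pulled down on streptavidin microbeads and FACS-sorted into low and high (top ~1%) gates on expression and reagent-binding fluorescence. Labels for polyreactivity follow the gate of origin.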

Sequence	polyreactivity (PSR sort gate)
QVQLVESGGGLVQAGGSLRLSCAASGIILYVNAMGWYRQAPGKERELVAAISWGGGSTYYADSVKGRFTISRDNAKNTVYLQMNSLKPEDTAVYYCAAEFWSGYPTYTYDYWGQGTQVTVSS	low polyreactivity
QVQLVESGGGLVQAGGSLRLSCAASGIIPSYAMGWYRQAPGKERELVAGISRSGGSTYYADSVKGRFTISRDNAKNTVYLQMNSLKPEDTAVYYCAARVKVRDFKGYYWGQGTQVTVSS	high polyreactivity
QVQLVESGGGLVQAGGSLRLSCAASGIISGDYALGWYRQAPGKERELVARITSGDSTNYADSVKGRFTISRDNAKNTVYLQMNSLKPEDTAVYYCAADRVWAYWTYGYWGQGTQVTVSS	low polyreactivity
QVQLVESGGGLVQAGGSLRLSCAASGIISGDYAMAWYRQAHGKERELVARITSGDSTNYADSVKGRFTISRDNAKNTVYLQMNSLKPEDTAVYYCAADRVWAYWTYGYWGQGTQVTVSS	low polyreactivity
QVQLVESGGGLVQAGGSLRLSCAASGIISIFNVMGWYRQAPGKERELVASITGRGGSTFYADSVKGRFTISRDNAKNTVYLQMNSLKPEDTAVYYCATDTGYTYPVTGLYDYWGQGTQVTVSS	low polyreactivity
QVQLVESGGGLVQAGGSLRLSCAASGIIVEYYTMGWKRQAPGKERELVASITYDGDTTYYADSVKGRFTISRDNAKITVYLQMNSRKPEDTAVYYCAADYYYVYSSFGHYYWGQGTQVTVSS	low polyreactivity
QVQLVESGGGLVQAGGSLRLSCAASGIIVPNAMGWYRQAPGKERELVAVITSGGSTYYADSVKGRFTISRDNAKNTVSLQMNSLKPEDTAVYYCNKDYAAIDRYDSWGQGTQVTVSS	low polyreactivity
QVQLVESGGGLVQAGGSLRLSCAASGIIVPNAMGWYRQAPGKERELVAVITSGGSTYYADSVKGRFTISRDNAKNTVYLQMNSLKPEDTAVYYCNKDYAAIDRYDSWGQGTQVTVSS	low polyreactivity
QVQLVESGGGLVQAGGSLRLSCAASGIIWYYAMGWYRQAPGKERELVAAISWSSGSTYYADSVKGRFTISRDNAKNTVYLQMNSLKPEDSAVYYCAADVYLVKYDYWGQGTQVTVSS	high polyreactivity
QVQLVESGGGLVQAGGSLRLSCAASGINFAYNAMGWYRQAPGKERELVATITDSGGSTSYADSVKGRFTISRDNAKNTVYLQMNSLKPEDTAVYYCAVLPVYWYWRNYVYLSGYDYWGQGTQVTVSS	low polyreactivity
QVQLVESGGGLVQAGGSLRLSCAASGINFDDNAMGWYRQAPGKERELVATISDGGRTYYADSVKGRFTISRDNAKNTVYLQMNSQKPEDTAVYYCADRLWWPYSPAWAKMDYGGQGTQVTVSS	low polyreactivity
QVQLVESGGGLVQAGGSLRLSCAASGINFDTNAIGWYRQAPGKERELVATITQRGGTTYYADSVKGRFTISRDNAKNTVYLQMNSLKPEDTAVYYCNAGPVGLPYDSWGQGTQVTVSS	low polyreactivity
QVQLVESGGGLVQAGGSLRLSCAASGINFFGKYAMGWYRQAPGKERELVAAISWSGGRTYYADSVKWRFTISRDNAKNTVYLQMNSLKPEDTAVYYCAVYPRDAERYGYCGQGTQVTVSS	high polyreactivity
QVQLVESGGGLVQAGGSLRLSCAASGINFKGNAMGWYRQAPGKERELVATISSGGTTNYADSVKGRFTISRDNAKNTVYLQMNSLKPEDTAVYYCAKRGYYRSRRYDYWGQGTQVTVSS	high polyreactivity
QVQLVESGGGLVQAGGSLRLSCAASGINFKRYAMGWYRQAPGKESELVATINRDGRTSYADSVKGRFTISRDNAKNTVYLQMNSLKQEDTAVYYFNKRGTYATPTPGNLFDYWGQGTLVTVSS	low polyreactivity
QVQLVESGGGLVQAGGSLRLSCAASGINFSPYAMGWYRQAPGKERELVAAISYSGGSTYYADSVKGRFTISRDNAKNTVYLQMNSLKPEDTAVYYCAVVYSYYLAVLGYWDYDYWGQGTQVTVSS	low polyreactivity
QVQLVESGGGLVQAGGSLRLSCAASGINFVGYAMGWYRQAPGKERELVAAISTSSRTYYADSVKGRFTISRDNAKITVYLHMNSLKPDDTAVYYCNARGTRWYYRHDYWGQGTQVTVSS	high polyreactivity
QVQLVESGGGLVQAGGSLRLSCAASGINFYYNAMGWYRQAPGKERELVATISWSDTSTYYADSVKGRFTISRDNAKNTVFLQMNSLKPEDTAGYYCATDGRETWLPEYYWGQGTQVTVSS	low polyreactivity
QVQLVESGGGLVQAGGSLRLSCAASGIPRNTMGWYRQAPGKERELVASISTSGGSTYYADSVKGRFTISLDNAKKTVYLQMNSLKPEDTAVYYCAKKAYASRYFIYDYWGQGTQVTVSS	low polyreactivity
QVQLVESGGGLVQAGGSLRLSCAASGISFSQYARGWYRQAPGKERELVAAISGSGGDTYYADSVKGRFTISRDNAKNTVYLQMNSLKPEDTAVYYCNADYESVYYEDYDYWGQGTQVTVSS	low polyreactivity
QVQLVESGGGLVQAGGSLRLSCAASGISYTSYAMGWYRQAPGKERELVAAISSSGGSTYYADSVKGRFTISRDNAKNTVYLQMNSLKPEDTAVYYCIARPRSRSPRVEYDYWGQGTQVTVSS	high polyreactivity

Sequence	polyreactivity (PSR sort gate)
QVQLVESGGGLVQAGGSLRLSCAASGITFAENAMGWFRQAPGKERELVAAISGSGVDTYYADSVKGRFTISRDNAKNPVYLQMNSVKPEDTAVYYSNAVYYRSSYPSGRYGMDYWGQGTQVTVSS	high polyreactivity
QVQLVESGGGLVQAGGSLRLSCAASGITFARYAMAWYRPAPGKERELVAAISKRGGRTYYADSVKGRFTISRDNAKNTFYLQMNSLKPEDTAVYYCATDYYVSTDYNYWGQGTQVTLSS	high polyreactivity
QVQLVESGGGLVQAGGSLRLSCAASGITFASNTMGWYRQAPGKERELVAAITRGDNTYYADSVKGRFTISRDNAKNTVYLQMNSLKPEDTSVYYCATEGYQIQYEHDYWGQGTQVTVSS	low polyreactivity
QVQLVESGGGLVQAGGSLRLSCAASGITFATNAMGWYRQAPGKERDLVAGITSGGSTYYADSVKGRFTISRDNAKNTVYLQMNSLKPEDTAVYYCAKRYHYWYGTGYDYWGQGTQVTVSS	low polyreactivity
QVQLVESGGGLVQAGGSLRLSCAASGITFAYYAMGWYRQAPGKERELVAAIRWSGGDTYYADSVKGRFTISRDNAKNTVYLQMNSLKPEDTAVYYCAADTTWGYDYWGQGTQVTVSS	low polyreactivity
QVQLVESGGGLVQAGGSLRLSCAASGITFAYYAMGWYRQAPGKERELVAVITSGGRTNYADSVKGRFTISRDNAKNTVYLQMNSLKPEDTAVYYCAAYRSSKTLRLGYYYWGQGTQVTVSS	high polyreactivity
QVQLVESGGGLVQAGGSLRLSCAASGITFCYNTMGWYRQAPGKERELVAAISGSGGRTYYADSVKGRFTISRDNAKNTVYLQMNSLKPEDTAVYDCAARWQIWSSLYDYWGQGTQVTVSS	high polyreactivity
QVQLVESGGGLVQAGGSLRLSCAASGITFDDYAMGWYRQAPGKERELVAAISESGDSTYYADSVKGRFTISRDNAKNTVYFQMNSLKPEDTAVYYCAADSTYYYGWGMYYWGQGTQVTVSS	high polyreactivity
QVQLVESGGGLVQAGGSLRLSCAASGITFDDYDMGWYIQAPGKEREFVAAISFSGSSTYYADSVKGRFTISRDNAKNTVYLQMNSLKPEDTAVYYCAAVTTGTITSKYNYWGQGTQVTVSS	low polyreactivity
QVQLVESGGGLVQAGGSLRLSCAASGITFDDYDMGWYRQAPGKERELVAAISWSGGSTYYADSVKGRFTISRDNAKTTVYLQMNSLKPEDTAVYYCAAEVIWWVREYYYWGQGTQVTVSS	low polyreactivity
QVQLVESGGGLVQAGGSLRLSCAASGITFDGYAMGWNTQAPGKEREFVAAITWNGGSTYYADSVKGRFTISRDNAKNTVYLQMNSLKPEDTAVYYCNADPFTGYDYWGQGTQVTVSS	low polyreactivity
QVQLVESGGGLVQAGGSLRLSCAASGITFDHYAMGWYRQAPGKEREFVAAIDDIGGDTYYADSVKGRFTISRDNAKNTVYLQMNSLKPEDTAVYYCAADYGYYSRFYYWGQGTQVTVSS	low polyreactivity
QVQLVESGGGLVQAGGSLRLSCAASGITFDLYVMGWYRQAPGKERDLVAAINRGTSTYYADSVKGRFTISRDNAKITVYLQMNSLKPEDTAVYYCAADSGGVALYRYDYWGKGTQVTVSS	low polyreactivity
QVQLVESGGGLVQAGGSLRLSCAASGITFDNNAMGWYRQAPGKEREFVADIDGSGGSTYYADSVKGRFTISRDNAKNTVYLQMNSLKPEDTAVYYCNAGYVHSFDYWGQGTQVTVSS	low polyreactivity
QVQLVESGGGLVQAGGSLRLSCAASGITFDSYAMGWNRQAPGKERELVAAISYSGGSTYYADSVKGRFTISRDNAKNTVYLQMNSLNPEDTAVYFCAAGSDDDYDYWGQGTQVTVSS	low polyreactivity
QVQLVESGGGLVQAGGSLRLSCAASGITFDTYAMGCYIQAPGKERELVAAISKSGGSTYYADSVKGRFTISRDNAKNTVYLQMNSLKPEDTAVYYCNARYRNSGRYWDWYYYWGQGTQVTVSS	high polyreactivity
QVQLVESGGGLVQAGGSLRLSCAASGITFDYYAMGWYRQAPGIERELVAAIDDSGGSTYYADSVKGRFTISRDNAKNTVYLQMNSLKPEDTAVYYCAAEFFYYEYDYWGQGTQVTVSS	high polyreactivity
QVQLVESGGGLVQAGGSLRLSCAASGITFDYYAMGWYRQAPGKERELVAAIDTGGSTNYADSVKGRFTISRDNAKNTVYLQMNSLKPEDTAVYYCAKDPHGSDFGYWGQGTQVTVSS	low polyreactivity
QVQLVESGGGLVQAGGSLRLSCAASGITFDYYAMGWYRQAPGKERELVAAISWGGGSTYYADSVKGRFTISRDNAKNTVYLQMNSLKPEDTAVYYCAADIVSSPSSYVPPGDYWGQGTQVTVSS	low polyreactivity
QVQLVESGGGLVQAGGSLRLSCAASGITFDYYAMGWYRQAPGKERELVAAISWGGGSTYYADSVKGRFTISRDNAKNTVYLQMNSLKQEDTAVYYCAAVIVYSPSSYVRPGDYWGQGTQVTVSS	low polyreactivity

— the nanobody polyreactivity screen of Harvey et al. (2022)
